Here are results for four molecules from patent US20110177070A1 (EMERGENT PRODUCT DEVELOPMENT SEATLLE, published 2011).

Test [1] deals with T1, recombinant human sIL-6R (human, UniProt P08887 20-358, limits assumed).
T1 construct: Bought soluble receptor; also called human soluble IL6R; IL6R alone
T1 sequence (looked up): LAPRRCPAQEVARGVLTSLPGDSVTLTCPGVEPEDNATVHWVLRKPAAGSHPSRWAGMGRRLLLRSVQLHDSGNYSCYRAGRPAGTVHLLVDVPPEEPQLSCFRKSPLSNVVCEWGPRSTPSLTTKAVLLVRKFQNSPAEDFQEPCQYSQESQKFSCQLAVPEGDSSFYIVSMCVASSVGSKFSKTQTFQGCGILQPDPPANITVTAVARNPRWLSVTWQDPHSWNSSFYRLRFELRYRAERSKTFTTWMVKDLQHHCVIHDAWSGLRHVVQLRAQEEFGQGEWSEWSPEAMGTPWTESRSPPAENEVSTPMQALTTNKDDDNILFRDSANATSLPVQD
Nature of the test: sandwich ELISA: Xceptor captured on anti-human IgG-Fc, sIL-6R, anti-human IL-6R-biotin. As to the method:
Added to each well of a 96-well plate was 100 μl goat anti-human IgG-Fc (ICN Pharmaceuticals, Costa Mesa, Calif.) from a 2 μg/ml solution in PBS, pH 7.2-7.4, The plates were covered, and incubated overnight at 4° C. After washing four times with PBS-T, 250 μl Blocking buffer (PBS-T with 3% BSA or 10% normal goat serum) was added to each well, the plate was covered, and incubated at room temperature for 2 hours (or at 4° C. overnight). After washing the plate three times with PBS-T, added in duplicate wells to the anti-human IgG-Fc coated plate was 100 μl/well Xceptor TNFRSF1B::anti-HIL6 samples, positive control anti-human IL-6R(R&D Systems, Minneapolis, Minn.) and negative controls human IgG or human gp130-Fc chimera (R&D Systems), each serially diluted three-fold in Working buffer starting at 300 ng/ml, the plate was covered, and incubated at room temperature for about 1 to 2 hours. After washing the plate five times with PBS-T, added in duplicate wells was 100 μl/well recombinant human sIL-6R(R&D Systems) from a 75 pM solution in Working buffer, the plate was covered, and incubated at room temperature for about 1 to 2 hours. After washing the plate five times with PBS-T, added 100 μl/well anti-human IL-6R-biotin (R&D Systems) from a 100 ng/ml solution in Working buffer, the plate was covered, and incubated at room temperature for about 1 to 2 hours. After washing the plate five times with PBS-T, 100 μl per well horse radish peroxidase-conjugated streptavidin (Zymed, San Francisco, Calif.) diluted 1:4,000 in Working buffer was added, the plate was covered, and incubated at room temperature for 30 minutes. After washing the plate six times with PBS-T, 100 μl per well 3,3,5,5-tetramentylbenzidine (TMB) substrate solution (Pierce, Rockford, Ill.) was added for about 3 to 5 minutes and then the reaction was stopped with 50 μl Stop buffer (1N H₂SO₄) per well. The absorbance of each well was read at 450 nm.
In general terms: An ELISA detects its analyte on a solid surface through an enzyme-linked reagent.

Test [2] concerns the target T2, recombinant human TNF-α (human, UniProt P01375 77-233).
T2 construct: also called rhTNF-α
The test can be described thus: sandwich ELISA: Xceptor captured on anti-human IgG-Fc, 2 ng/ml TNF-α, anti-human TNF-α-biotin. As to the method: Added to each well of a 96-well plate was 100 μl goat anti-human IgG-Fc (ICN Pharmaceuticals, Costa Mesa, Calif.) from a 2 μg/ml solution in PBS, pH 7.2-7.4. The plate was covered, and incubated overnight at 4° C. After washing four times with PBS-T, 250 μl Blocking buffer was added to each well, the plate was covered, and incubated at room temperature for 2 hours (or at 4° C. overnight). After washing the plate three times with PBS-T, added in duplicate wells to the anti-human IgG-Fc coated plate was 100 μl/well Xceptor TNFRSF1B::anti-HIL6 samples, positive controls Enbrel® (etanercept) and recombinant human TNFR2 (TNFRSF1B)-Fc chimera (R&D Systems, Minneapolis, Minn.), and negative controls human IgG or human gp130-Fc chimera (R&D Systems), each serially diluted three-fold in Working buffer starting at 300 ng/ml, the plate was covered, and incubated at room temperature for about 1 to 2 hours. After washing the plate five times with PBS-T, added in duplicate wells was 100 μl/well recombinant human TNF-α (R&D Systems) from a 2 ng/ml solution in Working buffer, the plate was covered, and incubated at room temperature for about 1 to 2 hours. After washing the plate five times with PBS-T, added 100 μl/well anti-human TNF-α-biotin (R&D Systems) from a 200 ng/ml solution in Working buffer, the plate was covered, and incubated at room temperature for about 1 to 2 hours. After washing the plate five times with PBS-T, 100 μl per well horse radish peroxidase-conjugated streptavidin (Jackson ImmunoResearch, West Grove, Pa.) diluted 1:1,000 in Working buffer was added, the plate was covered, and incubated at room temperature for 30 minutes. After washing the plate six times with PBS-T, 100 μl per well 3,3,5,5-tetramentylbenzidine (TMB) substrate solution (Pierce, Rockford, Ill.) was added for about 3 to 5 minutes and then the reaction was stopped with 50 μl Stop buffer (1N H₂SO₄) per well. The absorbance of each well was read at 450 nm.

T2 sequence (P01375 77-233 limits assumed): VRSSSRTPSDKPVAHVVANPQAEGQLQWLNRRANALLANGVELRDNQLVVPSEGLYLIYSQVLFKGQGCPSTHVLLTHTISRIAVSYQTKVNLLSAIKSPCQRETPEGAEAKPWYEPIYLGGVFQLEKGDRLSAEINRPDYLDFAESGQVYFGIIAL

B1: Xceptor fusion protein TRU(X6T)-1019 (Fc fusion)
chain: EVQLLESGGGLVQPGGSLRLSCAASGFTFSWYLMHWVRQAPGKGLEWVSGIWPSGGHTLYADSVKGRFTISRDNSKNTLYLQMNSLRAEDTAVYYCAREPLLWFGELSYNWFDPWGQGTLVTVSSGGGGSGGGGSGGGGSQDIQMTQSPSSVSASVGDRVTITCRASQGISSWLAWYQQKPGKAPKLLIYAASSLQSGVPSRFSGSGSGTDFTLTISSLQPEDFATYYCQQANSFPLTFGGGTKVEIKTGEPKSSDKTHTCPPCPAPEAAGAPSVFLFPPKPKDTLMISRTPEVTCVVVDVSHEDPEVKFNWYVDGVEVHNAKTKPREEQYNSTYRVVSVLTVLHQDWLNGKAYACAVSNKALPAPIEKTISKAKGQPREPQVYTLPPSRDELTKNQVSLTCLVKGFYPSDIAVEWESNGQPENNYKTTPPVLDSDGSFFLYSKLTVDKSRWQQGNVFSCSVMHEALHNHYTQKSLSLSPGQRHNNSSLNTRTQKARHSPNSLPAQVAFTPYAPEPGSTCRLREYYDQTAQMCCSKCSPGQHAKVFCTKTSDTVCDSCEDSTYTQLWNWVPECLSCGSRCSSDQVETQACTREQNRICTCRPGWYCALSKQEGCRLCAPLRKCRPGFGVARPGTETSDVVCKPCAPGTFSNTTSSTDICRPHQICNVVAIPGNASMDAVCTSTSPTRSMAPGAVHLPQPVSTRSQHTQPTPEPSTAPSTSFLLPMGPSPPAEGSTGD
In the case of B1, the results for the binding result in test [1] and in test [2] were “no binding (tested: Xceptor from 300 ng/ml; sIL-6R 75 pM)” and “binds”, respectively.

B2: Xceptor fusion protein TRU(XT6)-1002 (Fc fusion)
chain: LPAQVAFTPYAPEPGSTCRLREYYDQTAQMCCSKCSPGQHAKVFCTKTSDTVCDSCEDSTYTQLWNWVPECLSCGSRCSSDQVETQACTREQNRICTCRPGWYCALSKQEGCRLCAPLRKCRPGFGVARPGTETSDVVCKPCAPGTFSNTTSSTDICRPHQICNVVAIPGNASMDAVCTSTSPTRSMAPGAVHLPQPVSTRSQHTQPTPEPSTAPSTSFLLPMGPSPPAEGSTGDTGEPKSSDKTHTCPPCPAPEAAGAPSVFLFPPKPKDTLMISRTPEVTCVVVDVSHEDPEVKFNWYVDGVEVHNAKTKPREEQYNSTYRVVSVLTVLHQDWLNGKAYACAVSNKALPAPIEKTISKAKGQPREPQVYTLPPSRDELTKNQVSLTCLVKGFYPSDIAVEWESNGQPENNYKTTPPVLDSDGSFFLYSKLTVDKSRWQQGNVFSCSVMHEALHNHYTQKSLSLSPGQRHNNSSLNTRTQKARHSPNSEVQLLESGGGLVQPGGSLRLSCAASGFTFSFYQMHWVRQAPGKGLEWVSGIYPSGGYTKYADSVKGRFTISRDNSKNTLYLQMNSLRAEDTAVYYCARDLGYGSSWYYFDYWGQGTLVTVSSGGGGSGGGGSGGGGSQSALTQPASVSGSPGQSITISCSGTDSDVGGYNHVSWYQQHPGKAPKLIIYDVDHRPSGISNRFSGSKSGNTASLTISGLQAEDEADYYCSSYRSGSTYVFGTGTKVTVL
notes: also called Xceptor TNFRSF1B::anti-HIL6
B2: the binding result in test [1] is on record as “no binding (tested: Xceptor from 300 ng/ml; sIL-6R 75 pM)”; in test [2], “binds”.

B3: Xceptor fusion protein TRU(XT6)-1019 (Fc fusion)
chain: LPAQVAFTPYAPEPGSTCRLREYYDQTAQMCCSKCSPGQHAKVFCTKTSDTVCDSCEDSTYTQLWNWVPECLSCGSRCSSDQVETQACTREQNRICTCRPGWYCALSKQEGCRLCAPLRKCRPGFGVARPGTETSDVVCKPCAPGTFSNTTSSTDICRPHQICNVVAIPGNASMDAVCTSTSPTRSMAPGAVHLPQPVSTRSQHTQPTPEPSTAPSTSFLLPMGPSPPAEGSTGDTGEPKSSDKTHTCPPCPAPEAAGAPSVFLFPPKPKDTLMISRTPEVTCVVVDVSHEDPEVKFNWYVDGVEVHNAKTKPREEQYNSTYRVVSVLTVLHQDWLNGKAYACAVSNKALPAPIEKTISKAKGQPREPQVYTLPPSRDELTKNQVSLTCLVKGFYPSDIAVEWESNGQPENNYKTTPPVLDSDGSFFLYSKLTVDKSRWQQGNVFSCSVMHEALHNHYTQKSLSLSPGQRHNNSSLNTRTQKARHSPNSEVQLLESGGGLVQPGGSLRLSCAASGFTFSWYLMHWVRQAPGKGLEWVSGIWPSGGHTLYADSVKGRFTISRDNSKNTLYLQMNSLRAEDTAVYYCAREPLLWFGELSYNWFDPWGQGTLVTVSSGGGGSGGGGSGGGGSQDIQMTQSPSSVSASVGDRVTITCRASQGISSWLAWYQQKPGKAPKLLIYAASSLQSGVPSRFSGSGSGTDFTLTISSLQPEDFATYYCQQANSFPLTFGGGTKVEIK
notes: as for B2
Consider B3, for which the figures for the binding result in test [1] and in test [2] were “no binding (tested: Xceptor from 300 ng/ml; sIL-6R 75 pM)” and “binds”, respectively.

B4: Xceptor fusion protein TRU(XT6)-1058 (Fc fusion)
chain: LPAQVAFTPYAPEPGSTCRLREYYDQTAQMCCSKCSPGQHAKVFCTKTSDTVCDSCEDSTYTQLWNWVPECLSCGSRCSSDQVETQACTREQNRICTCRPGWYCALSKQEGCRLCAPLRKCRPGFGVARPGTETSDVVCKPCAPGTFSNTTSSTDICRPHQICNVVAIPGNASMDAVCTSTSPTRSMAPGAVHLPQPVSTRSQHTQPTPEPSTAPSTSFLLPMGPSPPAEGSTGDTGEPKSSDKTHTCPPCPAPEAAGAPSVFLFPPKPKDTLMISRTPEVTCVVVDVSHEDPEVKFNWYVDGVEVHNAKTKPREEQYNSTYRVVSVLTVLHQDWLNGKAYACAVSNKALPAPIEKTISKAKGQPREPQVYTLPPSRDELTKNQVSLTCLVKGFYPSDIAVEWESNGQPENNYKTTPPVLDSDGSFFLYSKLTVDKSRWQQGNVFSCSVMHEALHNHYTQKSLSLSPGQRHNNSSLNTRTQKARHSPNSEVQLLESGGGLVQPGGSLRLSCAASGFTFSMYTMHWVRQAPGKGLEWVSWISPSGGWTKYADSVKGRFTISRDNSKNTLYLQMNSLRAEDTAVYYCAVSPWGGPFDYWGQGTLVTVSSGGGGSGGGGSGGGGSQDIQMTQSPSTLSASVGDRVTITCRASQSISSWLAWYQQKPGKAPKLLIYKASTLESGVPSRFSAGGSGTEFTLTISSLQPDDFGTYYCQQYNSYSLTFGGGTKVEII
As for B4, the binding result is “no binding (tested: Xceptor from 300 ng/ml; sIL-6R 75 pM)” in test [1] and “binds” in test [2].
